# Laboratory results from US20260242735A1.
# Legend:
# human CD33 A183S (human) = human CD33 A183S (human) (UniProt P20138); assay: alanine scan, flow cytometry, HEK293-T
# human CD33 A74S (human) = human CD33 A74S (human) (UniProt P20138); assay: alanine scan, flow cytometry, HEK293-T
# human CD33 D107A (human) = human CD33 D107A (human) (UniProt P20138); assay: alanine scan, flow cytometry, HEK293-T
# human CD33 D112A (human) = human CD33 D112A (human) (UniProt P20138); assay: alanine scan, flow cytometry, HEK293-T
# human CD33 E121A (human) = human CD33 E121A (human) (UniProt P20138); assay: alanine scan, flow cytometry, HEK293-T
# human CD33 E154A (human) = human CD33 E154A (human) (UniProt P20138); assay: alanine scan, flow cytometry, HEK293-T
# human CD33 E85A (human) = human CD33 E85A (human) (UniProt P20138); assay: alanine scan, flow cytometry, HEK293-T
# human CD33 F118A (human) = human CD33 F118A (human) (UniProt P20138); assay: alanine scan, flow cytometry, HEK293-T
# human CD33 G88A (human) = human CD33 G88A (human) (UniProt P20138); assay: alanine scan, flow cytometry, HEK293-T
# human CD33 G94A (human) = human CD33 G94A (human) (UniProt P20138); assay: alanine scan, flow cytometry, HEK293-T
# human CD33 H193A (human) = human CD33 H193A (human) (UniProt P20138); assay: alanine scan, flow cytometry, HEK293-T
# human CD33 I176A (human) = human CD33 I176A (human) (UniProt P20138); assay: alanine scan, flow cytometry, HEK293-T
# human CD33 I66A (human) = human CD33 I66A (human) (UniProt P20138); assay: alanine scan, flow cytometry, HEK293-T
# human CD33 I67A (human) = human CD33 I67A (human) (UniProt P20138); assay: alanine scan, flow cytometry, HEK293-T
# human CD33 K146A (human) = human CD33 K146A (human) (UniProt P20138); assay: alanine scan, flow cytometry, HEK293-T
# human CD33 K52A (human) = human CD33 K52A (human) (UniProt P20138); assay: alanine scan, flow cytometry, HEK293-T
# human CD33 K77A (human) = human CD33 K77A (human) (UniProt P20138); assay: alanine scan, flow cytometry, HEK293-T
# human CD33 L141A (human) = human CD33 L141A (human) (UniProt P20138); assay: alanine scan, flow cytometry, HEK293-T
# human CD33 L180A (human) = human CD33 L180A (human) (UniProt P20138); assay: alanine scan, flow cytometry, HEK293-T
# human CD33 L187A (human) = human CD33 L187A (human) (UniProt P20138); assay: alanine scan, flow cytometry, HEK293-T
# human CD33 L78A (human) = human CD33 L78A (human) (UniProt P20138); assay: alanine scan, flow cytometry, HEK293-T
# human CD33 L92A (human) = human CD33 L92A (human) (UniProt P20138); assay: alanine scan, flow cytometry, HEK293-T
# human CD33 N113A (human) = human CD33 N113A (human) (UniProt P20138); assay: alanine scan, flow cytometry, HEK293-T
# human CD33 P145A (human) = human CD33 P145A (human) (UniProt P20138); assay: alanine scan, flow cytometry, HEK293-T
# human CD33 P155A (human) = human CD33 P155A (human) (UniProt P20138); assay: alanine scan, flow cytometry, HEK293-T
# human CD33 P174A (human) = human CD33 P174A (human) (UniProt P20138); assay: alanine scan, flow cytometry, HEK293-T
# human CD33 R144A (human) = human CD33 R144A (human) (UniProt P20138); assay: alanine scan, flow cytometry, HEK293-T
# human CD33 R62A (human) = human CD33 R62A (human) (UniProt P20138); assay: alanine scan, flow cytometry, HEK293-T
# human CD33 R69A (human) = human CD33 R69A (human) (UniProt P20138); assay: alanine scan, flow cytometry, HEK293-T
# human CD33 R89A (human) = human CD33 R89A (human) (UniProt P20138); assay: alanine scan, flow cytometry, HEK293-T
# human CD33 R98A (human) = human CD33 R98A (human) (UniProt P20138); assay: alanine scan, flow cytometry, HEK293-T
# human CD33 S102A (human) = human CD33 S102A (human) (UniProt P20138); assay: alanine scan, flow cytometry, HEK293-T
# human CD33 S104A (human) = human CD33 S104A (human) (UniProt P20138); assay: alanine scan, flow cytometry, HEK293-T
# human CD33 S194A (human) = human CD33 S194A (human) (UniProt P20138); assay: alanine scan, flow cytometry, HEK293-T
# human CD33 S195A (human) = human CD33 S195A (human) (UniProt P20138); assay: alanine scan, flow cytometry, HEK293-T
# human CD33 S54A (human) = human CD33 S54A (human) (UniProt P20138); assay: alanine scan, flow cytometry, HEK293-T
# human CD33 S71A (human) = human CD33 S71A (human) (UniProt P20138); assay: alanine scan, flow cytometry, HEK293-T
# human CD33 T125A (human) = human CD33 T125A (human) (UniProt P20138); assay: alanine scan, flow cytometry, HEK293-T
# human CD33 T152A (human) = human CD33 T152A (human) (UniProt P20138); assay: alanine scan, flow cytometry, HEK293-T
# human CD33 T162A (human) = human CD33 T162A (human) (UniProt P20138); assay: alanine scan, flow cytometry, HEK293-T
# human CD33 T191A (human) = human CD33 T191A (human) (UniProt P20138); assay: alanine scan, flow cytometry, HEK293-T
# human CD33 T86A (human) = human CD33 T86A (human) (UniProt P20138); assay: alanine scan, flow cytometry, HEK293-T
# human CD33 V73A (human) = human CD33 V73A (human) (UniProt P20138); assay: alanine scan, flow cytometry, HEK293-T
# human CD33 W167A (human) = human CD33 W167A (human) (UniProt P20138); assay: alanine scan, flow cytometry, HEK293-T
# [1] = biological target: human wild-type CD33 (human) (UniProt P20138); assay: flow cytometry, IgG at 0.25 ug/ml on HEK293-T cells expressing CD33 against vector alone
# human wild-type CD33 (human), sequence (P20138 18-364 limits assumed): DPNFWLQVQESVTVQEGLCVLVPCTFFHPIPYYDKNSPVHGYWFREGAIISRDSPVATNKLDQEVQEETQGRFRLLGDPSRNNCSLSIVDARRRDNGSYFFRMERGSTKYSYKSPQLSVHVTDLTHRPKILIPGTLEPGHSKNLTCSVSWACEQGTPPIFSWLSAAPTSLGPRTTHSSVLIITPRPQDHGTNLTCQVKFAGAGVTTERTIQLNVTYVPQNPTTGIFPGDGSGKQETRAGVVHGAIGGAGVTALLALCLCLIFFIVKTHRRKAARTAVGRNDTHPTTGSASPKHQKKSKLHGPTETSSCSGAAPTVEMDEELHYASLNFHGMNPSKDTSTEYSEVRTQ
# human CD33 I176A (human), sequence (P20138 18-364 I176A limits assumed): as the sequence (P20138 18-364 limits assumed) above, with I159A counted along it
# human CD33 G94A (human), sequence (P20138 18-364 G94A limits assumed): as the sequence (P20138 18-364 limits assumed) above, with G77A counted along it
# human CD33 V73A (human), sequence (P20138 18-364 V73A limits assumed): as the sequence (P20138 18-364 limits assumed) above, with V56A counted along it
# human CD33 P174A (human), sequence (P20138 18-364 P174A limits assumed): as the sequence (P20138 18-364 limits assumed) above, with P157A counted along it
# human CD33 L180A (human), sequence (P20138 18-364 L180A limits assumed): as the sequence (P20138 18-364 limits assumed) above, with L163A counted along it
# human CD33 W167A (human), sequence (P20138 18-364 W167A limits assumed): as the sequence (P20138 18-364 limits assumed) above, with W150A counted along it
# human CD33 T162A (human), sequence (P20138 18-364 T162A limits assumed): as the sequence (P20138 18-364 limits assumed) above, with T145A counted along it
# human CD33 A74S (human), sequence (P20138 18-364 A74S limits assumed): as the sequence (P20138 18-364 limits assumed) above, with A57S counted along it
# human CD33 I67A (human), sequence (P20138 18-364 I67A limits assumed): as the sequence (P20138 18-364 limits assumed) above, with I50A counted along it
# human CD33 L78A (human), sequence (P20138 18-364 L78A limits assumed): as the sequence (P20138 18-364 limits assumed) above, with L61A counted along it
# human CD33 D107A (human), sequence (P20138 18-364 D107A limits assumed): as the sequence (P20138 18-364 limits assumed) above, with D90A counted along it
# human CD33 S54A (human), sequence (P20138 18-364 S54A limits assumed): as the sequence (P20138 18-364 limits assumed) above, with S37A counted along it
# human CD33 S195A (human), sequence (P20138 18-364 S195A limits assumed): as the sequence (P20138 18-364 limits assumed) above, with S178A counted along it
substance,measurement,setting,value
Refmab #7 (WM53) (antibody),Mean % WT Binding,human CD33 A183S (human),102 % WT binding
same,Mean % WT Binding,human CD33 A74S (human),118 % WT binding
same,Mean % WT Binding,human CD33 D107A (human),113 % WT binding
same,Mean % WT Binding,human CD33 D112A (human),47.9 % WT binding
same,Mean % WT Binding,human CD33 E121A (human),94.4 % WT binding
same,Mean % WT Binding,human CD33 E154A (human),108 % WT binding
same,Mean % WT Binding,human CD33 E85A (human),126 % WT binding
same,Mean % WT Binding,human CD33 F118A (human),3.2 % WT binding
same,Mean % WT Binding,human CD33 G88A (human),115 % WT binding
same,Mean % WT Binding,human CD33 G94A (human),99.2 % WT binding
same,Mean % WT Binding,human CD33 H193A (human),107 % WT binding
same,Mean % WT Binding,human CD33 I176A (human),103 % WT binding
same,Mean % WT Binding,human CD33 I66A (human),117 % WT binding
same,Mean % WT Binding,human CD33 I67A (human),135 % WT binding
same,Mean % WT Binding,human CD33 K146A (human),91.1 % WT binding
same,Mean % WT Binding,human CD33 K52A (human),76.8 % WT binding
same,Mean % WT Binding,human CD33 K77A (human),117 % WT binding
same,Mean % WT Binding,human CD33 L141A (human),118 % WT binding
same,Mean % WT Binding,human CD33 L180A (human),105 % WT binding
same,Mean % WT Binding,human CD33 L187A (human),124 % WT binding
same,Mean % WT Binding,human CD33 L78A (human),88.9 % WT binding
same,Mean % WT Binding,human CD33 L92A (human),89.9 % WT binding
same,Mean % WT Binding,human CD33 N113A (human),80 % WT binding
same,Mean % WT Binding,human CD33 P145A (human),102 % WT binding
same,Mean % WT Binding,human CD33 P155A (human),107 % WT binding
same,Mean % WT Binding,human CD33 P174A (human),122 % WT binding
same,Mean % WT Binding,human CD33 R144A (human),120 % WT binding
same,Mean % WT Binding,human CD33 R62A (human),114 % WT binding
same,Mean % WT Binding,human CD33 R69A (human),146 % WT binding
same,Mean % WT Binding,human CD33 R89A (human),94 % WT binding
same,Mean % WT Binding,human CD33 R98A (human),138 % WT binding
same,Mean % WT Binding,human CD33 S102A (human),111 % WT binding
same,Mean % WT Binding,human CD33 S104A (human),117 % WT binding
same,Mean % WT Binding,human CD33 S194A (human),112 % WT binding
same,Mean % WT Binding,human CD33 S195A (human),117 % WT binding
same,Mean % WT Binding,human CD33 S54A (human),100 % WT binding
same,Mean % WT Binding,human CD33 S71A (human),104 % WT binding
same,Mean % WT Binding,human CD33 T125A (human),91.3 % WT binding
same,Mean % WT Binding,human CD33 T152A (human),102 % WT binding
same,Mean % WT Binding,human CD33 T162A (human),103 % WT binding
same,Mean % WT Binding,human CD33 T191A (human),116 % WT binding
same,Mean % WT Binding,human CD33 T86A (human),111 % WT binding
same,Mean % WT Binding,human CD33 V73A (human),113 % WT binding
same,Mean % WT Binding,human CD33 W167A (human),127 % WT binding
same,Signal:Background (signal:background ratio),[1],32
